These results are taken from US8168160B2, “Anti-inflammatory fusion protein” (Eberhard-Karls-Universität Tübingen, priority 2006, dated 2012).

The subject of data set [1] is foam cell formation from CD34+ stem cells co-cultivated with thrombocytes. Put plainly: Foam cell formation by co-cultivation of CD34+ stem cells with thrombocytes, counted by phase contrast microscopy. The format is cell-based, human. As for the experimental part:
To isolate human thrombocytes venous blood was withdrawn from healthy test persons and collected into acidic citrate dextrose (ACD) buffer. After the centrifugation at 430 g for 20 minutes the platelet-rich plasma (PRP) was removed, added to Tyrodes HEPES buffer (2.5 mM HEPES, 150 mM NaCl, 1 mM […], 2.5 mM NaHCO3, 0.36 mM NaH2PO4, 5.5 mM glucose, 1 mg/ml BSA, pH 6.5) and centrifuged at 900 g for 10 minutes. After the removal of the supernatant the thrombocyte containing pellet was suspended in Tyrodes HEPES buffer (pH 7.4).
Human CD34^+ cells were isolated from human cord blood. This was obtained after the approval of the local ethics committee from healthy women immediately after the birth of a child. At least 95% of the isolated cells were positive for CD34^+ which was confirmed by means of flow cytometry analysis after each isolation. Human mononuclear cells were also obtained from cord blood by density gradient centrifugation on the Biocoll separation solution (BIOCROM Berlin, Germany) at 600 g for 15 minutes. CD34^+ cells were enriched by immunoaffinity selection (CD34 progenitor cell isolation kit; Milteenyi Biotec, Bergisch Gladbach, Germany) according to the manual of the producer. In the following the cells were incubated on 96 well plates which were covered with 0.2% gelatine. For the cultivation of the cells IMDM with glutamax, supplemented with 5% heat-inactivated fetal calf serum, […] penicillin-streptomycin, 1% MEM vitamins and 1% non-essential amino acids were used, all purchased from Gibco (Invitrogen, Karlsruhe, Germany). CD34^+ progenitor cells (50000 cells) were co-cultivated at 37° C. and 5% CO2 with thrombocytes (2×10^8-ml) in 96 well plates which were pre-covered with 0.2% gelatine. The formation of foam cells was counted in six windows by means of phase contrast microscopy.
Foam cells were produced by co-incubation of CD34^+ stem cells with thrombocytes for 10 days in vitro. […] In the following it was microscopically analyzed whether the foam cell formation was inhibited by the incubation with the CD68-Fc homodimers. […]

Data set [2] deals with MMP-9. Description: MMP-9 expression in the supernatant of foam cells. Type of data set: cell-based, human. As for the experimental part: Moreover the method of ROS (“Reactive Oxygen Species”) measurement was used. Typically in the course of an inflammation process monocytes infiltrate the vascular wall, there differentiate into macrophages and produce cytokines, proteases such as the matrix metalloproteinase (MMP) and complement factors, but also free oxidized radicals, i.e. ROS. For the foam cells resulting from the co-incubation of CD34^+ stem cells with thrombocytes in vitro it was detected that they release ROS and also produce matrix metalloproteinase 9 (MMP-9).
The bands correspond to the expression level of MMP-9. In the corresponding lanes the following samples were loaded: 1. control CD34, 2. control CD34, 3. control protein 100 µg/ml, 4. control protein 400 μg/ml, 5. CD68-Fc homodimer 100 µg/ml, 6. CD68-Fc homodimer 200 µg/ml, 7. CD68-Fc homodimer 400 µg/ml, 8. Fluvastatin 1 μM.

Data set [3] deals with atherosclerotic plaque tissue from the carotid of patients. Put plainly: Specific Fc-ELISA on atherosclerotic plaques in vitro. The format is binding. Conditions: disintegrated, surface-dried human carotid plaques (FIG. 5A). As for the experimental part:
(§1) Atherosclerotic plaques from the carotid of patients, removed within the context of a surgery, were disintegrated, suspended, transferred to culture plates and surface-dried. Then a specific ELISA against the Fc portion of the CD68 or GPVI or pure Fc, respectively, was performed. In a parallel immunohistological analysis of human tissue from thrombus endarterectomy preparations of the Arteria carotis were performed.

Data set [4] concerns atherosclerotic plaque tissue. Description: Immunohistological analysis of thrombus endarterectomy preparations of the Arteria carotis. The format is binding. The settings on record: human thrombus endarterectomy preparations of Arteria carotis (FIG. 5B). As for the experimental part: as §1
The subject of data set [5] is atherosclerotic vessels of Apo E mice. Put plainly: In vivo application of J124-labeled CD68-Fc, ex vivo autoradiography of vessels. The settings on record: A. carotis; Apo E mice in relation to wild type (FIG. 6). As for the experimental part: Furthermore an in vivo application of J124-labeled CD68-Fc in atherosclerotic Apo E mice and in wild type mice was performed. J124-labeled CD68-Fc was administered into 24 weeks old atherosclerotic mice or in control wild type mice without any significant atherosclerosis. The organs were then removed and the A. carotis on both sides and the aortic arch were analyzed by autoradiography ex vivo.
A staining with oil-red and a corresponding autoradiography is shown in partial figure (B).

The mark [6] stands for this setting: increasing concentrations (summary statement).

B1: CD68-Fc homodimer: Fusion of extracellular domain of human CD68 with mutated human IgG1 Fc via three amino acid connecting element (SEQ ID No. 6), secreted as disulfide-linked homodimer (protein)
chain: NDCPHKKSATLLPSFTVTPTVTESTGTTSHRTTKSHKTTTHRTTTTGTTSHGPTTATHNPTTTSHGNVTVHPTSNSTATSQGPSTATHSPATTSHGNATVHPTSNSTATSPGFTSSAHPEPPPPSPSPSPTSKETIGDYTWTNGSQPCVHLQAQIQIRVMYTTQGGGEAWGISVLNPNKTKVQGSCEGAHPHLLLSFPYGHLSFGFMQDLQQKVVYLSYMAVEYNVSFPHAAQWTFSAQNASLRDLQAPLGQSFSCSNSSIILSPAVHLDLLSLRLQAAQLPHTGVFGQSFSCPSDRSGGRESKSCDKTHTCPPCPAPEAAAAPSVFLFPPKPKDTLMISRTPEVTCVVVDVSHEDPEVKFNWYVDGVEVHNAKTKPREEQYNSTYRVVSVLTVLHQDWLNGKEYKCKVSNKALPASIEKTISKAKGQPREPQVYTLPPSRDELTKNQVSLTCLVKGFYPSDIAVEWESNGQPENNYKTTPPVLDSDGSFFLYSKLTVDKSRWQQGNVFSCSVMHEALHNHYTQKSLSLSPGK
modifications: homodimer; Recombinant CD68-Fc fusion protein
Regarding B1, in data set [1] (co-incubation of CD34+ stem cells with thrombocytes for 10 days in vitro, microscopic analysis (FIG. 3B)), the foam cell formation result is on record as “inhibited the formation of the foam cells”. For the same molecule, the “foam cell formation, dependence on dosage” value in data set [1] (concentration of 400 μg/ml, pure Fc as control (FIG. 3C)) is “virtually completely inhibited”. Besides, the “formation of foam cells in co-cultivation assays in vitro” value in data set [1] (setting [6]) is given as “significant inhibition of the formation of foam cells”. Further, in data set [2] (100, 200 and 400 μg/ml (lanes 5, 6, 7), in relation with control protein (FIG. 4)), the “expression of MMP-9 in the supernatant of foam cells” value was “clear inhibition of the formation of MMP-9”. In data set [2] (setting [6]), the “secretion of MMP-9 by foam cells” value is given as “can be inhibited”. Besides, the “binding to atherosclerotic plaque tissue (Fc-ELISA)” value in data set [3] was “significant binding”. Besides, the “binding to atherosclerotic plaque tissue (immunohistology)” value in data set [4] was “significant binding”. Also, the “accumulation in vessels (autoradiography ex vivo)” value in data set [5] is “No significantly increased accumulation”.
